Results from patent US20080057492A1, “Interacting site for gp41 on gp120 of hiv-1” (priority 2002, published 2008).

Tests used:
Assay in all cases: cell-based or functional assay
[1] = target: Chimera P/7CD4bs/V3 envelope glycoprotein
[2] = target: MN-P envelope glycoprotein (neutralization resistant primary clone of the HIV-1 MN strain) (HIV-1 MN strain) (UniProt P05877)
[3] = target: Chimera P/7CD4bs envelope glycoprotein

Row | Substance | fifty percent neutralization concentration (pseudotyped virus) [1] [ng/mL] | fifty percent neutralization concentration (pseudotyped virus) [2] [µg/mL] | fifty percent neutralization concentration (pseudotyped virus) [3] [ng/mL]
1 | monoclonal antibody 17b | 210 | > 2.5 | 480
2 | monoclonal antibody 4.8d | 20 | > 2.5 | 60
3 | monoclonal antibody 19b | 16 | > 2.5 | 60
